Blank lines part the entries; values can stand above or below the molecule they belong to.
T1: recombinant Rim4(PxLm)-His6 (S. cerevisiae, UniProt P38741 1-713, P454E455L456 to A454E455G456)
T1 sequence (looked up): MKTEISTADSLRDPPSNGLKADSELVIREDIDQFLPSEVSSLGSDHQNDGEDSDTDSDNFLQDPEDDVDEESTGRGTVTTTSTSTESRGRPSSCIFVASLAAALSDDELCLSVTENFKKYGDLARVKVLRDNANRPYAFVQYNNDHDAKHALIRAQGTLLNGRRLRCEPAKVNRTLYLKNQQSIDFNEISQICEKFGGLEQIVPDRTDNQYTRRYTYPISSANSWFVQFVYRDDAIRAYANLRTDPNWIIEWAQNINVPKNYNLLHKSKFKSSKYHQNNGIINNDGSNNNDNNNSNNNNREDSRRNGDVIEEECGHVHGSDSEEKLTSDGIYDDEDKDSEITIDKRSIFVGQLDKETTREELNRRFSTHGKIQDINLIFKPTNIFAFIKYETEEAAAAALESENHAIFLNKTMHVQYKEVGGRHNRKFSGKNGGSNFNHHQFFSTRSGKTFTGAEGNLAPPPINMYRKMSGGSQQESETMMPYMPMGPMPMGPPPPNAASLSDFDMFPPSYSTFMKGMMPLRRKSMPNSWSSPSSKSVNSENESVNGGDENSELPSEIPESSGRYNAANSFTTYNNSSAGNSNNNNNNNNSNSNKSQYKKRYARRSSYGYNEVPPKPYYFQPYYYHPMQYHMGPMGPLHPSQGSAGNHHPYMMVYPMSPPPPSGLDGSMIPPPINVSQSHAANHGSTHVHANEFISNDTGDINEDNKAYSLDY

T2: Bmh1 (S. cerevisiae (endogenous in W303 …, UniProt P29311 1-267))
T2 sequence (looked up): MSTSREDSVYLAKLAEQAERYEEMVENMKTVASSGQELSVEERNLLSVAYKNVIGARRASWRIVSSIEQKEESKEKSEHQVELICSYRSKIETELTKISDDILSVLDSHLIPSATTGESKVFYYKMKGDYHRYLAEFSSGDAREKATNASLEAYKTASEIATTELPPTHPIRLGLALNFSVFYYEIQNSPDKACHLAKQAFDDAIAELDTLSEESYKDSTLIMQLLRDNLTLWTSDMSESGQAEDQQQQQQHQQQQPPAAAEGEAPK

B1: recombinant 6His-3FLAG-Cdc14 (enzyme, S. cerevisiae, UniProt Q00684 1-551, looked up)
chain: MRRSVYLDNTIEFLRGRVYLGAYDYTPEDTDELVFFTVEDAIFYNSFHLDFGPMNIGHLYRFAVIFHEILNDPENANKAVVFYSSASTRQRANAACMLCCYMILVQAWTPHQVLQPLAQVDPPFMPFRDAGYSNADFEITIQDVVYGVWRAKEKGLIDLHSFNLESYEKYEHVEFGDFNVLTPDFIAFASPQEDHPKGYLATKSSHLNQPFKSVLNFFANNNVQLVVRLNSHLYNKKHFEDIGIQHLDLIFEDGTCPDLSIVKNFVGAAETIIKRGGKIAVHCKAGLGRTGCLIGAHLIYTYGFTANECIGFLRFIRPGMVVGPQQHWLYLHQNDFREWKYTTRISLKPSEAIGGLYPLISLEEYRLQKKKLKDDKRVAQNNIEGELRDLTMTPPSNGHGALSARNSSQPSTANNGSNSFKSSAVPQTSPGQPRKGQNGSNTIEDINNNRNPTSHANRKVVIESNNSDDESMQDTNGTSNHYPKVSRKKNDISSASSSRMEDNEPSATNINNAADDTILRQLLPKNRRVTSGRRTTSAAGGIRKISGSIKK
B2: Bmh2 (natural protein, UniProt P34730 1-273, looked up)
chain: MSQTREDSVYLAKLAEQAERYEEMVENMKAVASSGQELSVEERNLLSVAYKNVIGARRASWRIVSSIEQKEESKEKSEHQVELIRSYRSKIETELTKISDDILSVLDSHLIPSATTGESKVFYYKMKGDYHRYLAEFSSGDAREKATNSSLEAYKTASEIATTELPPTHPIRLGLALNFSVFYYEIQNSPDKACHLAKQAFDDAIAELDTLSEESYKDSTLIMQLLRDNLTLWTSDISESGQEDQQQQQQQQQQQQQQQQQAPAEQTQGEPTK
B3: recombinant Rim4(ΔC289)-His6 (domain or fragment, S. cerevisiae, UniProt P38741 1-424, looked up)
chain: MKTEISTADSLRDPPSNGLKADSELVIREDIDQFLPSEVSSLGSDHQNDGEDSDTDSDNFLQDPEDDVDEESTGRGTVTTTSTSTESRGRPSSCIFVASLAAALSDDELCLSVTENFKKYGDLARVKVLRDNANRPYAFVQYNNDHDAKHALIRAQGTLLNGRRLRCEPAKVNRTLYLKNQQSIDFNEISQICEKFGGLEQIVPDRTDNQYTRRYTYPISSANSWFVQFVYRDDAIRAYANLRTDPNWIIEWAQNINVPKNYNLLHKSKFKSSKYHQNNGIINNDGSNNNDNNNSNNNNREDSRRNGDVIEEECGHVHGSDSEEKLTSDGIYDDEDKDSEITIDKRSIFVGQLDKETTREELNRRFSTHGKIQDINLIFKPTNIFAFIKYETEEAAAAALESENHAIFLNKTMHVQYKEVGGRH

Assays:
[1] = target: recombinant Bmh2-EGFP-His6 (S. cerevisiae) (UniProt P34730); assay: pull-down
[2] = target: recombinant Bmh1/2-EGFP-His6 (S. cerevisiae) (UniProt P29311); assay: pull-down
[3] = target: recombinant Bmh1-EGFP-His6 (S. cerevisiae) (UniProt P29311); assay: pull-down
[4] = target: Rim4-FLAG (S. cerevisiae) (UniProt P38741); assay: mass photometry
[5] = target: T1, recombinant Rim4(PxLm)-His6; assay: pull-down
Bmh1 = target: T2, Bmh1; assay: mass photometry
[6] = target: B1; assay: pull-down

mole ratio in the pull-down, printed 2.5:1 [1]: 2.5 | mole ratio in the pull-down, printed 2.5:1 [2]: 2.5 | mole ratio in the pull-down, printed 2.5:1 [3]: 2.5
Molecule: PKA-treated Rim4-His6 (Rim4-BBS-p) (from UniProt P38741 1-713) (natural protein)

stoichiometry N [4]: 1
Molecule: Bmh1 (from UniProt P29311 1-267) (natural protein)

stoichiometry N [4]: 1
Molecule: Bmh2 (from UniProt P34730 1-273) (natural protein)

Molecule: B1
binding result [5]: binds

Molecule: B2
stoichiometry N (Bmh1): 1

Molecule: B3
binding result [6]: binds
